Experimental data from the nanobody polyreactivity screen of Harvey et al. (2022).

Test: yeast display, Sf9 membrane polyspecificity reagent, FACS + sequencing; frameworks hold sequencing errors
Outline: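 A synthetic nanobody library was expressed on Saccharomyces cerevisiae BJ5465 by galactose induction for 36–48 hours. The library was stained for 1 hour at 4 °C with 10% biotinylated, detergent-solubilized Sf9 membrane reagent and enriched with streptavidin microbeads before FACS. Low and high (top ~1%) gates were set on anti-HA fluorescence for expression and streptavidin fluorescence for reagent binding, and each polyreactivity label reflects the gate of origin.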

Row | Sequence | polyreactivity (PSR sort gate)
1 | QVQLVESGVGIVQAGGSLRVSCAASGFTFYSYAKGWYRQAPGKERELVAAISYTGGSTYYADSVKGRFTISRDNAKNTVSLQMNSQKPEDSAVYYCAAKLWTRVTRMRRWVDYWGQGTQVSVSS | high polyreactivity
2 | QVQLVESGGGLVQAGGSLRLSCAASGRTFRYYAMGRSRQAPGTERELVAAISRSGGRTNYADSVKGRFTISRDNAKNTVYLQMNSLIPEDTAVDYCAADFRYTFDSWGQGTQVTVSS | high polyreactivity
3 | QVQLVESGGGLVQAGGSLRLSCAASGSILEVYAMGWYRQAPGKERELVAAISDGDSTYYADSVKGRFTISRDNAKNTVYLQMNSLKPEDTAVYYCAAEFVGTLWWYDYWGQGTQVTVSS | low polyreactivity
4 | QVQLVESGGGFVQAGGSLRLSCAASGFTFYRNAMGWYRQAPGKERELVAAITWSGTSTYYADSVKGRFTISRDNAKTTVYVQMNSLKPEDTAVYYCNTVGYRGRSNSRFYYWGQGTQVTVSS | high polyreactivity
5 | QVQLVESGGGIVQAGGSLRLSCAASGFIFSNYAMGWYRQAPGKERELVAAISSGGTITKYADSVKGRFTISRDNAKNTVYLQMNSLKTEDTAVYYCNAVVRVRFRKNDYWGQGTQVTVSS | high polyreactivity
6 | QVQLVESGVGLVQAGGSLRLSCAASGFTFQQYAMAWYRQAPGKERELVASISSSGGSTYYADSVKGRFTISRDNAKNTVYLQMNSLKPEDTAVYYCNARSWVRRYIYYYWGQGTQVTVSS | high polyreactivity
7 | QVQLVESGGGLVQAGGSLRLSCAASGSTFGSYGMGGYRQAPGKERELVAGITSSGSTYYADSVKGRFTISRDNAKNTVYLQMNSLKPDDTAVYYCNARSGIDWYYDNDYWGQGTQVTVSS | low polyreactivity
8 | QVQLVESGGGLVQAGGSLRLSCASSGYTFTVNAMGWYRQAPGKERELVAAISGSGGSTYYADSVKGRFTISRDNAKNTVYLQMNSLKPEDTAVYYCAADYWYYYWPLDYWGQGTQVTVSS | high polyreactivity
9 | QVQLVESGGGLVQAGGSFRLSCAASGSIFVVYAMGWYRQAPGKERELVAAITSGGSTYYADSVKGRFTISRDNAKNTVYLQMNSLKPEDTAVYYCATTYRDGVYELTTFDYWGQGTQVTVSS | low polyreactivity
10 | QVQLVESGGGIVQAGGSLRLSCAASGRIFNRYAMGWYRQAPGKKWELVATISVSGANTYYADSVKGRFTISRDNAKNTVYLQMNSLKPEDTAVYSCNVKRGTIGGYYYWGQVTQVTVSS | high polyreactivity
11 | QVHLVESGGGLVQAGGSLRLSSAATGSIIYWYDMGWYRQAPGKERELVAAITNDGDSTYYADSVKGRFTISRDNAKNTVYLQMNSLKPEDTAVYYCAADVLFYYEYGSWGQGTQVTVSS | low polyreactivity
12 | QLQLVESGGGLVQAGGSLRLSCAASGRIFVYYAMGWYRQAPGKERELVASISYSGASTYYADSVKGRFTISRDNAKNTVYFQMNSLKPEDTAVYYCNTDGDDFFHVIYDYWGQGTQVTVSS | low polyreactivity
13 | QVQLVESGGGLVQAGGSLRLSCAASGSTFRSYAMGWYRQAPGKERESVARISYRTGSTYYADSVKGRFTISRDNAKNTVYLQMNSLEPEDTAVYYCATRGSYVGGLYDYWGQGTQVTVSS | high polyreactivity
14 | QVQLVESGGGLVQAGGSLRLSCAASGFILYYYAMGWYRQAPGKERELVAAISWSGDSTYYADSVKGRFTISRDNAKNTVYLQMNSLKPEDTAVYYCAATWQLTHRYYWGQGTQVTVSS | low polyreactivity
15 | QVQLVESGGGLVQAGGSLRLSCAASGSIFDGYGMGWSRQAPGKERELVAGITSGGSTYYADSVKGRFTISRDNAKNTVYLQMNSLKPEDTAVYYCATVVRYSNARGDYWGQGTQVTVSS | low polyreactivity
16 | QVQLVESGGCLVQAGGSLRLSCAASGRIFGVYAMGWYRQAPGKERELVAAISEGGGSTNYADSVKGRFTISRDNANNTVYLQMNSLKPEDTAVYYCAATSRTGVRRYYSWGQGTQVTVSS | low polyreactivity
17 | QVQLVESGGGLVQAGGRLRLSCAASGIIFVYYAMGWYRQAPGKERELVADITRSGSSTYYADSVKGRFTISRDNAKNTVYLQMNSLKAEDTAVYFCAADNFYQAYGYWGQGTQVTVSS | low polyreactivity
18 | QVQLVESGGGLVQAGGSLRLSCAASGRTFTKYAMGWYRQAPGKERELVAAISRSGGSTYYADSVKGRFTISRDNAKNTVYLQMNSLKPEDTAVYYCAARGQYRYSFGDYSWGQGTQVTVSS | high polyreactivity
19 | QVQLVESGGGLVQAGGSLRLSCAASGSTFRYYAMGWYRQAPGKERELVAAITYRGSSTYYADSVKGRFTISRDNAKNTVYLQMNSLKPEDTAVYYCARRYAGDYYYWGQGTQVTVSS | high polyreactivity
20 | QVQLVESGGGLVQAGGSLRLSCAASGLTFVAYGMGWYRQAPGKERELVATIRWRGGSTYYADSVKGRFTISRDNAKNTVYLQMNSLKPEDTAVYYCAATRARRWSSPGQYGYWGQGTQVTVSS | high polyreactivity
21 | QVQLVESGGGLVQAGGSLRLSCAASGLIFVSYAMGWYRPAPGKERELVAAINSRGSRTYYADSVKGRFTISRDNAKNTVYLQMNSLKPEDTAVYYCAAGVIRYGGKEEYYYWGQGTQVTVSS | high polyreactivity
22 | QVQLVESGGGLVQAGGSLRLSCAASGLTFVYYAMGWYRQAPGKERELVAAISRSGGATYYADSVKGRFTISRDNAKNTVYLQMNSLKPEDTAVYYCAADATKWIGVVTMDYWGQGTQVTVAS | high polyreactivity

Row | Sequence | polyreactivity (PSR sort gate)
23 | QVQLVESGGGIVQAGGSLRLSCAASGFTIPRYAMGWYRQAPGKERELVAAITVGGGRTYYADSVKGRFTISRDNAKNTVYLQMNSLKPEDTAVYYCAADSHASTYDYWGQGTQVTVSS | low polyreactivity
24 | QVQLVESGGGLVQAGGSLRLSCAASGGTFKRNAMGWYRQAPGKERELVAAISTSGATTYYADSVKGRFTISRDNAKNTVYLQMNSLKPEDTAVYYCNAVGDARYNYWGQGTQVTVSS | high polyreactivity
25 | QVQLVESGGGLVQAGGSLRLSCAASGIIFFDYAMGWYRQAPGKERELVAAITGSGGRTYYADSVKGRFTISRDNAKNTVYLQMNSLKPEDTAVYYCAAARYYYGGDYWGQGTQVTVST | high polyreactivity
26 | QVQLVESGGGLVQAGGSLRLSCAASGFIFSSYAMGWYSQAPGKERDLGAAISKSGDRTSYADSVKGRFTISRDNAKNTVYLQMNSLKPEDTAVYYCAKDRLYRTKKYRDMYYWGQGTQVTVSS | high polyreactivity
27 | QVQLVESGGGLVQAGGSLRLSCAASGFTFVLYAMGWYRQAPGKERELVADITEGGDNTYYADSVKGRFTISRDNAKNTVYLQMNSLKPEDTAVYYCNARASRLYPPYDYWGQGTQVTVSS | high polyreactivity
28 | QVQLVESGGGLVQAGGSLRLSCAASGSIFIRNAMGWYRQAPGKERELVAAITSGGNTYYADSVKGRFTISRDNAKNTVYLQMNSLKPEDTAVYYCNAGRYYRHDYWGQGTQVTVSS | low polyreactivity
29 | QVQLVESGGGLVQAGGSLRLSCAASGFIFSSYAMGWYRQAPGKERELVAAITSGGSTNYADSVKGRFTISRDNAKNTVYLQMNSLKPEDTAVYYCAADGVASLFGDPPTEFDYWGQGTQVTVSS | low polyreactivity
30 | QVQLVESGGGLVQAGGSLRLSCAASGRTIRAYTMGWSRQAPGKERELVAAISTPGGSTYYADSVKGRFTISRDNAKNTVYLQMNSLKPEDTAVYYCAADYGGPITGYEYWGQGTQVTVSS | low polyreactivity
31 | QVQLVESGGGLVQAGGSLRLSCAASGSIFQRYAMGWYRQAPGKERELVAGINWSGGRTYYADSVKGRFTISRDNAKNTVYLQMNSLKPEDTAVYYCAKPVERYTYSLYQQYDYWGQGTQVTVSS | high polyreactivity
32 | QVQLVESGGGLVQAGGSLRLSCAASGSIFTTYAMGWYRQAPGKERELVAVISRRGGSTYYADSVKGRFTISRDNAKNTVYLQMNSLTPEDTADYYCNAYTYTYHRDHTDRYNYWGQGTQVTVSS | high polyreactivity
33 | QVQLVDSGGGLVQAGGSLRLSCAASGSISSFYAMGWYRQAPGKERELVAGITSGGSTNYADSVKGRFTISRDNAKNTVYLQMNSLKPEDTAVYYCAAVYKGAGTHFDVFVKEFDYWGQGTQVTVSS | low polyreactivity
34 | QVQLVESGGGLVQAGGSLRLRCAASGRTFVGTAMGWYRQAPGKERELVAAISWDGGSPYYADSVKGRFTISRDNAKNTVYLQMNSLKPEDTAVYYCAALYRPSAFRGYGYWGQGTQVTVSS | high polyreactivity
35 | QVQLVESGGGLVQAGGSLRLSCAASRSIFSAYAMGWYRQAPGKERELVAAISTSGYTNYADSVKGRFTISRDNAKNTVYLQMKSLTPEDTAVYYCAADRVYGDGTAGYGYEFDYWGQVTQVTVSS | low polyreactivity
36 | QVQLVESGGGLVQAGGSLRLSCAASGRIFTTYTMGWYRQAPGKERELVAAISKRGGSTYYADSVKGRFTISRDNAKNTVYLQMNSLKPEDTAVYYCAAVGGRFFAPYIWSVDSYDYWGQGTQVTVSS | high polyreactivity
37 | QVQLVESRGGLVQAGGSLRLSCAASGSTFFHYAMGWYRQAPGKDRELVAAIDSNGGSTYYADSVKGRFTISRDNAKNTVYLPMNSLKPEDTAVYYCAADDLAEFEYDYWGQGTQVTVSS | low polyreactivity
38 | QVQLVESGGGLVQAVGSLRLSCAASVFIFPYYDMGWYRQAPGKEREFVAAITKSGGRTYYADSVKGRFTISRDNAKNTVYLHMNSLKPEDTAVYYCNADDPDYLVSYRYDYWGLGTQVTVSS | low polyreactivity
39 | QVQLVESGGGLVQAGGSLRLSCAAYGNTFEHYAKGWYRQAPVKERELVAAISNSGGSTYYADSVKGRFTLSRDNAKNTVYLQMNSLKPEDTAVYYCNARGRASATVRLGRPDPFGDWGQGTQVTVSS | high polyreactivity
40 | QVQLVESGGGLVQAGGSLRLICAASGRNFTKYAMGLYRQAPGKERELVAAINFRGDRTYYADSVKGRYTISRDNAKNTVYLQMNSLKPEDTAVYYCAAEWSTYWLFNYEYWGQGTQVTVSS | high polyreactivity
41 | QVQLVESGGGLVQAGGSLRLSCAASGSTFSLYAMGWYRQAPGKERELVAAISWSDGSTYYADSVKGRFTISRDNAKNTVYLQMNSLKPEDTAVYYCAAESTVRPYEHSGDYWGQGTQVTVSS | low polyreactivity
42 | QVQLVESGGGLVQAGGSLRLSCAASGSIFSIYAMGWYRQAPGTERELVASINSGDSTYYADSVKGRFTISRDNAKNTVYVQMNSLKPDDTAVYNCAATLVTVPLYRFDYWGQGTQVTVSS | low polyreactivity
43 | QDQLVESGGGLVQAGGSLRLRCAASGRTFEGNAMGWYRQAAGTEGELVAAMTSGGPTNSADSVKGRFTISRDNAKNTVYFQMNSLKPEDTAVYYCADETRDRSTYFPGQAYDYWGQGTQVTVSS | low polyreactivity
